Results as given in IntAct's records for PubMed 24794231.

B1: Cyclin-Y (Homo sapiens), Q8ND76 (parent)
chain: MGNTTSCCVSSSPKLRRNAHSRLESYRPDTDLSREDTGCNLQHISDRENIDDLNMEFNPSDHPRASTIFLSKSQTDVREKRKSLFINHHPPGQIARKYSSCSTIFLDDSTVSQPNLKYTIKCVALAIYYHIKNRDPDGRMLLDIFDENLHPLSKSEVPPDYDKHNPEQKQIYRFVRTLFSAAQLTAECAIVTLVYLERLLTYAEIDICPANWKRIVLGAILLASKVWDDQAVWNVDYCQILKDITVEDMNELERQFLELLQFNINVPSSVYAKYYFDLRSLAEANNLSFPLEPLSRERAHKLEAISRLCEDKYKDLRRSARKRSASADNLTLPRWSPAIIS

Variants of: B1
Settings: with cul1_human CUL1, Q13616
cul1_human CUL1, Q13616, sequence (Q13616 whole entry): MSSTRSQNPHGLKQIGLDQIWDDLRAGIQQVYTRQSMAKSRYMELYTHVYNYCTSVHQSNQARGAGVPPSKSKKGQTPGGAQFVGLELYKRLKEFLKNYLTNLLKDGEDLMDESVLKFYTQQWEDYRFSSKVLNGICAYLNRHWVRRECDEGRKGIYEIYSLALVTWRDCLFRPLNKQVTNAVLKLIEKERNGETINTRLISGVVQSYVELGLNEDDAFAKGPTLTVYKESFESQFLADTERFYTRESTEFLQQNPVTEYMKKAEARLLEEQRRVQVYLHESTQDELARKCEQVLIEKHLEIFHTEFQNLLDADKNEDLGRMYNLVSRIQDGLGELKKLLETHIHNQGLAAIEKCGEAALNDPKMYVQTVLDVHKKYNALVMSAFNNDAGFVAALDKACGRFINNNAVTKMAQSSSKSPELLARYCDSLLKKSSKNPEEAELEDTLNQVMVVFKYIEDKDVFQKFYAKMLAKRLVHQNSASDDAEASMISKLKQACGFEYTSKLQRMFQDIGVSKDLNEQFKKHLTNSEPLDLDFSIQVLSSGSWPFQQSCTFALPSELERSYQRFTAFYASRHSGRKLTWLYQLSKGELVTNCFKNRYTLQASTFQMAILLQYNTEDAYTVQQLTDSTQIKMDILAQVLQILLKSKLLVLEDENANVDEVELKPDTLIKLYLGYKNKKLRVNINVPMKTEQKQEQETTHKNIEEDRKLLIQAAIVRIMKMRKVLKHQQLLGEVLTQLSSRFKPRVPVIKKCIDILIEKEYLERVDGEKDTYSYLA
For S73A, the “effect of a mutation on the interaction” value was “decreasing interaction”.

Variants of: B1
Settings: with cul1_human CUL1, Q13616
Remark: another data set of the same source
In the case of S71A, the “effect of a mutation on the interaction” value is reported as “decreasing interaction”.

Variants of: B1
Settings: with cul1_human CUL1, Q13616
Remark: another data set of the same source
For S71A;S73A, the “effect of a mutation on the interaction” value was “disrupting interaction”.
